Twelve molecules from publication PMC10954455 can be followed below.

In this data set the target is Human DNA topoisomerase 1 (Top1) (Homo sapiens, UniProt P11387 1-765). As to the kind of experiment: EMSA.
Sequence of Human DNA topoisomerase 1 (Top1) (P11387 whole entry): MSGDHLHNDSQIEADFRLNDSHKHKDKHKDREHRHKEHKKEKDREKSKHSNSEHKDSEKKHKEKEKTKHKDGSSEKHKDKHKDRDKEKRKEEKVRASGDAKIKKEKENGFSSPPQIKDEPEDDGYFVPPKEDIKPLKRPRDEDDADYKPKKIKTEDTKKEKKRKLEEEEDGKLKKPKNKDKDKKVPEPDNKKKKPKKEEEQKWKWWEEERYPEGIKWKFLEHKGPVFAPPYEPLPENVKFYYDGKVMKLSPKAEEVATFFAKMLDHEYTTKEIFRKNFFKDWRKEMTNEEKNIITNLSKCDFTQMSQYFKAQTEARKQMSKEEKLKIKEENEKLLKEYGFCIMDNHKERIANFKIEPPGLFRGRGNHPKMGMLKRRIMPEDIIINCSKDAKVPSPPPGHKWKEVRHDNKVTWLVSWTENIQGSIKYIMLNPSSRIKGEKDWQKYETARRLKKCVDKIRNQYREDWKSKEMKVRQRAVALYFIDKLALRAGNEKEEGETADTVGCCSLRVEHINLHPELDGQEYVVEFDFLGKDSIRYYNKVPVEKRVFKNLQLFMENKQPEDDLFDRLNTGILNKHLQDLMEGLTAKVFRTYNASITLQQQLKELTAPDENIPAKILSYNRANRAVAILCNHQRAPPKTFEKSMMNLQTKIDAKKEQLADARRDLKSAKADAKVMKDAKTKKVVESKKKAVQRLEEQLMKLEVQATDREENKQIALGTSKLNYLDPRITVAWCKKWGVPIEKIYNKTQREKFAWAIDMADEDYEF

B1: CSTB G4 in dsDNA (mixed)
DNA 1: CCTGAAGCAGACAGCTAGTGAATTCGGGGCGGGGCGCGGGGCGGGGTACTTGCGTATAACTGTTCCATAGT
DNA 2: ACTATGGAACAGTTATACGCAAGTATTTTTTTTTTTTTTTTTTTTTGAATTCACTAGCTGTCTGCTTCAGG
For the molecule B1, the binding result is “binds”.

B2: MYC G4 in dsDNA (mixed)
DNA 1: CCTGAAGCAGACAGCTAGTGAATTCGGGTGGGGAGGGTGGGGTACTTGCGTATAACTGTTCCATAGT
DNA 2: ACTATGGAACAGTTATACGCAAGTATTTTTTTTTTTTTTTTTTTTTGAATTCACTAGCTGTCTGCTTCAGG
As to B2, the binding result is “binds”.

B3: B4-dx2 G4 in dsDNA (mixed)
DNA 1: CCTGAAGCAGACAGCTAGTGAATTCGGATCTGAGAATCAGATGTGGGTGGGTGGGTACTTGCGTATAACTGTTCCATAGT
DNA 2: ACTATGGAACAGTTATACGCAAGTATTTTTTTTTTTTTTTTTTTTTGAATTCACTAGCTGTCTGCTTCAGG
Take B3: the binding result is “binds”.

B4: Tel G4 in dsDNA (mixed)
DNA 1: CCTGAAGCAGACAGCTAGTGAATTCGGGTTAGGGTTAGGGTTAGGGTACTTGCGTATAACTGTTCCATAGT
DNA 2: ACTATGGAACAGTTATACGCAAGTATTTTTTTTTTTTTTTTTTTTTGAATTCACTAGCTGTCTGCTTCAGG
For B4, the binding result was “binds”.

B5: T4B1 G4 in dsDNA (mixed)
DNA 1: CCTGAAGCAGACAGCTAGTGAATTCGTTTTGGTGGGTGGGTGGGTACTTGCGTATAACTGTTCCATAGT
DNA 2: ACTATGGAACAGTTATACGCAAGTATTTTTTTTTTTTTTTTTTTTTGAATTCACTAGCTGTCTGCTTCAGG
With B5, the binding result is listed as “binds”.

B6: BCL-2 G4 in dsDNA (mixed)
DNA 1: CCTGAAGCAGACAGCTAGTGAATTCGGGCGCGGGAGGAAGGGGGCGGGTACTTGCGTATAACTGTTCCATAGT
DNA 2: ACTATGGAACAGTTATACGCAAGTATTTTTTTTTTTTTTTTTTTTTGAATTCACTAGCTGTCTGCTTCAGG
For B6, the binding result is “binds”.

B7: C-Kit G4 in dsDNA (mixed)
DNA 1: CCTGAAGCAGACAGCTAGTGAATTCGGGCGGGCGCGAGGGAGGGTACTTGCGTATAACTGTTCCATAGT
DNA 2: ACTATGGAACAGTTATACGCAAGTATTTTTTTTTTTTTTTTTTTTTGAATTCACTAGCTGTCTGCTTCAGG
B7: the binding result is “binds”.

B8: C9orf72 G4 in dsDNA (mixed)
DNA 1: CCTGAAGCAGACAGCTAGTGAATTCGGGGCCGGGGCCGGGGCCGGGGTACTTGCGTATAACTGTTCCATAGT
DNA 2: ACTATGGAACAGTTATACGCAAGTATTTTTTTTTTTTTTTTTTTTTGAATTCACTAGCTGTCTGCTTCAGG
On to B8, for which the binding result was “binds”.

B9: non-G4 dsDNA (dsDNA)
DNA 1: CCTGAAGCAGACAGCTAGTGAATTCAAAAAAAAAAAAAAAAAAAAATACTTGCGTATAACTGTTCCATAGT
DNA 2: ACTATGGAACAGTTATACGCAAGTATTTTTTTTTTTTTTTTTTTTTGAATTCACTAGCTGTCTGCTTCAGG
As to B9, the binding result is listed as “no binding”.

B10: PDGFRB G4 in dsDNA (mixed)
DNA 1: CCTGAAGCAGACAGCTAGTGAATTCGGGGGGGCGGCGGGGTACTTGCGTATAACTGTTCCATAGT
DNA 2: ACTATGGAACAGTTATACGCAAGTATTTTTTTTTTTTTTTTTTTTTGAATTCACTAGCTGTCTGCTTCAGG
As to B10, the binding result is “binds”.

B11: MYOG in dsDNA (no G4 formed) (mixed)
DNA 1: CCTGAAGCAGACAGCTAGTGAATTCGGGTGGGCTGGGAGGTACTTGCGTATAACTGTTCCATAGT
DNA 2: ACTATGGAACAGTTATACGCAAGTATTTTTTTTTTTTTTTTTTTTTGAATTCACTAGCTGTCTGCTTCAGG
For B11, the binding result is given as “no binding”.

B12: T1B1 G4 in dsDNA (mixed)
DNA 1: CCTGAAGCAGACAGCTAGTGAATTCGTGGTGGGTGGGTGGGTACTTGCGTATAACTGTTCCATAGT
DNA 2: ACTATGGAACAGTTATACGCAAGTATTTTTTTTTTTTTTTTTTTTTGAATTCACTAGCTGTCTGCTTCAGG
For the molecule B12, the binding result is given as “binds”.
